This is an account of results in patent US20240141059A1 (Bristol-Myers Squibb, published 2024).

Values joined by “and” are separate entries in the source; they are usually repeats but may differ in a detail not shown here. Identical values can stand only once. Like-named read-outs stand apart in the source and are kept apart here.

Assay [1] has as its target T1, hCD73-his (human, UniProt P21589 26-546).
T1 construct: range 26-546; also called full length extracellular domain of human-CD73
T1 sequence (looked up): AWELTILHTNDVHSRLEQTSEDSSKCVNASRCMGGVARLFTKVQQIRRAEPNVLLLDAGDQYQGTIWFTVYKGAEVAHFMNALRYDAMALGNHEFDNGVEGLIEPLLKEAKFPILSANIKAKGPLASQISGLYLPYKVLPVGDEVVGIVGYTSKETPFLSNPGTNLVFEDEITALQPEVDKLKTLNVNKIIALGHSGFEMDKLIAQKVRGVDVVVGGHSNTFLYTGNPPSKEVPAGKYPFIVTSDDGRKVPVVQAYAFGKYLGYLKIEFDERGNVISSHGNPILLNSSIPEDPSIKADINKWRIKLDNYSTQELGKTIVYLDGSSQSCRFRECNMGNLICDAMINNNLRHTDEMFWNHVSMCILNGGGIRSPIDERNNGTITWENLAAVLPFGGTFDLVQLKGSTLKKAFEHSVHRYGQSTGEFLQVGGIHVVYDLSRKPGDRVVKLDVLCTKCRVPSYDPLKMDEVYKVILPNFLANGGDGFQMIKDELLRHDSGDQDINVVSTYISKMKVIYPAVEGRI
The experiment in a line: SEC of equimolar mAb + hCD73-his. Here is the method: (§1) The oligomeric state of CD73/antibody complexes were examined by size-exclusion chromatography coupled to an in-line multi-angle light scattering detector (SEC-MALS). Isocratic separations were performed on a Shodex PROTEIN KW-803 column connected to an Prominence Shimadzu UFLC in buffer containing 200 mM K₂HPO₄, 150 mM NaCl, pH 6.8, containing 0.02% Na azide (0.1 μm filtered) running at 0.5 mL/min. Samples were injected onto the column using a SIL-20AC Prominence Shimadzu® autosampler, and data were obtained from three online detectors connected in series: a Prominence SPD-20AD diode array UV/vis spectrophotometer followed by a Wyatt miniDAWN™ TREOS Multi-Angle Light Scattering Detector then a Wyatt Optilab T-rEX Refractive Index Detector® instrument. Data were collected and analyzed using Astra® (Wyatt) and Labsolutions® (Shimadzu) software.
CD73.4 antibodies having the heavy chain constant regions set forth in Table 14 were also tested for formation of high molecular weight complexes by SEC-MALS and DLS experiments, as described in Example 3.

For assay [2], the target named is T1, hCD73-his. Nature of the assay: SEC-MALS, target:mAb 1:1, 2.5 uM + 2.5 uM. The procedure: (§2) The structure and oligomeric state of CD73/antibody complexes in solution were examined by SEC-MALS and DLS.
as §1

Assay [3] addresses T2, human CD73 on cells (human, UniProt P21589 27-549).
T2 sequence (looked up): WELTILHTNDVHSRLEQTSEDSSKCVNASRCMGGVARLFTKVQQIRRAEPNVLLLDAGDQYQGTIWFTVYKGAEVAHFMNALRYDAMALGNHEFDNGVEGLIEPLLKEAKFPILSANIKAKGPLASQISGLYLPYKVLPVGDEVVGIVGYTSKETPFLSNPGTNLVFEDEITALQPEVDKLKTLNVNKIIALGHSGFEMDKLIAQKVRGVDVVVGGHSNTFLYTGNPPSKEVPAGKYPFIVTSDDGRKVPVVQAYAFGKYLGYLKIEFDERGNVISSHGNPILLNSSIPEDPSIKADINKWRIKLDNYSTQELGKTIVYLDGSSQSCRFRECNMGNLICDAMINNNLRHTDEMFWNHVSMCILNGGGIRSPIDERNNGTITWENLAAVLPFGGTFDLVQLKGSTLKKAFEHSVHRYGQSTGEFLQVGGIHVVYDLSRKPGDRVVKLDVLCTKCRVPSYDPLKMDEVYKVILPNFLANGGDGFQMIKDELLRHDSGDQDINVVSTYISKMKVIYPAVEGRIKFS
The experiment in a line: cell-based or functional assay.

In assay [4] the target is T2, human CD73 on cells. Nature of the assay: cell-based or functional assay. The source holds these as a separate data set.
Assay [5] has as its target T2, human CD73 on cells. Nature of the assay: cell-based or functional assay. The source holds these as a separate data set.
Assay [6] has as its target T1, hCD73-his. Nature of the assay: DLS, target:mAb 1:1, 2.5 uM + 2.5 uM; unit from the text. Here is the method: as §2
Dynamic light scattering (DLS) studies were performed on a Wyatt DynaPro® plate reader in 384 well plates at 25° C. Experimental parameters were 20 acquisitions of 5 s each per measurement, and measurements were recorded in quadruplicate, with the average and standard deviation reported. Intensity autocorrelation functions were fitted using the “Regularization” algorithm in the Dynamics® software (Wyatt Technologies®).

Assay [7] deals with T3, human GITR (human, UniProt Q9Y5U5 26-241).
T3 sequence (looked up): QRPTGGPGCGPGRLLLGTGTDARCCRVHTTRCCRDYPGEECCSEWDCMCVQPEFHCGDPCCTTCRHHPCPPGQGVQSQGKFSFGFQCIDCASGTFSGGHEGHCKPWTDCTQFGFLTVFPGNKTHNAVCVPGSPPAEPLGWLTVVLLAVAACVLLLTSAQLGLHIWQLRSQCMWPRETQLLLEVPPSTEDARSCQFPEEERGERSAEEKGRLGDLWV
The experiment in a line: cell-based or functional assay.

Assay [8] has as its target T2, human CD73 on cells. The experiment in a line: cell-based or functional assay. This is another data set of the same source.
The target of assay [9] is T4, N-hCD73-his (human, UniProt P21589 26-336, limits assumed).
T4 construct: monomeric in solution by SEC-MALS; also called N-terminal domain of hCD73
T4 sequence (looked up): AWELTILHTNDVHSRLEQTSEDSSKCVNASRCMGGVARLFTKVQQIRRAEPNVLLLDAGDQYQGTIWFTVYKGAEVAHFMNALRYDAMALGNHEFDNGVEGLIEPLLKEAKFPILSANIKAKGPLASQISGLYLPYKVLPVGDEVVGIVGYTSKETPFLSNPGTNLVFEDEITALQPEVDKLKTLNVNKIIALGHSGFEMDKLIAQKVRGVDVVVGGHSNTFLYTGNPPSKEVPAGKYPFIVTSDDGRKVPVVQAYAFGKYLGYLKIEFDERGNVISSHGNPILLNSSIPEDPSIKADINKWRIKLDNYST
Nature of the assay: SPR, mAb captured on protein A. The procedure:
The affinity of the antibodies for human CD73 was measured to determine whether the change of the constant region affects them. The affinities were determined by Surface Plasmon Resonance (SPR) as follows. […] For these experiments, protein A (Pierce) was immobilized to a density of 3000-4000 RU on flow cells 1˜4 of a CMS sensor chip (GE Healthcare) using standard ethyl(dimethylaminopropyl) carbodiimide (EDC)/N-hydroxysuccinimide (NHS) chemistry, with ethanolamine blocking, in a running buffer of 0.01 M HEPES pH 7.4, 0.15 M NaCl, 3 mM EDTA, 0.005% v/v tween 20. […] The running buffer for the kinetic experiments was 10 mM sodium phosphate, 130 mM sodium chloride, 0.05% tween 20, pH 7.1. The surfaces were regenerated after each cycle using two 30 s pulses of 10 mM glycine pH 1.5 at a flow rate of 30 μl/min. Sensogram data was double-referenced and then fitted to a 1:1 Langmuir model using Biacore® T100 evaluation software v2.0.4, to determine the association rate constant (ka), the dissociation rate constant (kd), and the equilibrium dissociation constant (KD).
For orientation: Surface plasmon resonance follows binding to a sensor surface in real time, without labels.

B1: CD73.4-IgG2-C219S (antibody)
heavy: QVQLVESGGGVVQPGRSLRLSCAASGFTFSNYGMHWVRQAPGKGLEWVAVILYDGSNKYYPDSVKGRFTISRDNSKNTLYLQMNSLRAEDTAVYYCARGGSSWYPDSFDIWGQGTMVTVSSASTKGPSVFPLAPCSRSTSESTAALGCLVKDYFPEPVTVSWNSGALTSGVHTFPAVLQSSGLYSLSSVVTVPSSNFGTQTYTCNVDHKPSNTKVDKTVERKSCVECPPCPAPPVAGPSVFLFPPKPKDTLMISRTPEVTCVVVDVSHEDPEVQFNWYVDGVEVHNAKTKPREEQFNSTFRVVSVLTVVHQDWLNGKEYKCKVSNKGLPAPIEKTISKTKGQPREPQVYTLPPSREEMTKNQVSLTCLVKGFYPSDIAVEWESNGQPENNYKTTPPMLDSDGSFFLYSKLTVDKSRWQQGNVFSCSVMHEALHNHYTQKSLSLSPG
light: not shown
notes: also called CD73.4-IgG2CS; CD73.4-IgG2.3
As for B1, in assay [1], the “UV % Peak1 (<12.9 min)” value came out at 37%, the “UV % Peak3 (15.1-16.7 min)” value turned out to be 7.7%, the “UV % Peak4 (16.7-19.3 min)” value came out at 28.6% and the “UV % Peak5 (>19.3 min)” value amounted to 2.9%. In assay [2], the “MW Peak 1” value stood at 3400 kDa, the “MW Peak 2” value is 970 kDa and the “MW Peak 3” value came to 480 kDa. In assay [3], the “% internalization, Calu6 cells” value was found to be 88%; the “% internalization, H228 cells” value is 94%; the “% internalization, H2030 cells” value was 89%; the “% internalization, HCC15 cells” value was 94%. For the same molecule, in assay [3], the “internalization T1/2, Calu6 cells” value stood at 6.5 min; the “internalization T1/2, H228 cells” value worked out at 13.8 min; the “internalization T1/2, H2030 cells” value was found to be 3.7 min; the “internalization T1/2, HCC15 cells” value was 3.1 min. Besides, in assay [4], the “internalization T1/2, Calu6” value turned out to be 36 min; the “internalization T1/2, NCI-H292” value turned out to be 16.6 min; the “internalization Ymax, Calu6” value was 75.6%; the “internalization Ymax, NCI-H292” value turned out to be 78.4%.

B2: CD73.4-IgG2-C219S-IgG1.1f (antibody)
heavy: QVQLVESGGGVVQPGRSLRLSCAASGFTFSNYGMHWVRQAPGKGLEWVAVILYDGSNKYYPDSVKGRFTISRDNSKNTLYLQMNSLRAEDTAVYYCARGGSSWYPDSFDIWGQGTMVTVSSASTKGPSVFPLAPCSRSTSESTAALGCLVKDYFPEPVTVSWNSGALTSGVHTFPAVLQSSGLYSLSSVVTVPSSNFGTQTYTCNVDHKPSNTKVDKTVERKSCVECPPCPAPPVAGPSVFLFPPKPKDTLMISRTPEVTCVVVDVSHEDPEVKFNWYVDGVEVHNAKTKPREEQYNSTYRVVSVLTVLHQDWLNGKEYKCKVSNKALPSSIEKTISKAKGQPREPQVYTLPPSREEMTKNQVSLTCLVKGFYPSDIAVEWESNGQPENNYKTTPPVLDSDGSFFLYSKLTVDKSRWQQGNVFSCSVMHEALHNHYTQKSLSLSPGK
light: not shown
notes: also called CD73.4-IgG2.3G1.1f-KH; CD73.4-IgG2CS-IgG1.1f
Turning to B2, in assay [2], the “MW Peak 1” value is 3600 kDa, the “MW Peak 2” value came to 1100 kDa and the “MW Peak 3” value came out at 580 kDa. In addition, in [5], the “internalization T1/2, Calu6” value worked out at 21 min; the “internalization T1/2, NCI-H292” value worked out at 16.6 min; the “internalization Ymax, Calu6” value came to 81%; the “internalization Ymax, NCI-H292” value is 90.3%. In addition, the Rh in assay [6] came to 31.2 nm. In [4], the “internalization T1/2, Calu6” value was 34 min; the “internalization T1/2, NCI-H292” value came to 15.8 min; the “internalization Ymax, Calu6” value stood at 76.8%; the “internalization Ymax, NCI-H292” value turned out to be 77.6%.

B3: GITR.6.G2 (antibody, human IgG2, kappa)
heavy: QVQLVESGGGVVQPGRSLRLSCAASGFTFSSYGMHWVRQAPGKGLEWVAVIWYEGSNKYYADSVKGRFTISRDNSKNTLYLQMNSLRAEDTAVYYCARGGSMVRGDYYYGMDVWGQGTTVTVSSASTKGPSVFPLAPCSRSTSESTAALGCLVKDYFPEPVTVSWNSGALTSGVHTFPAVLQSSGLYSLSSVVTVPSSNFGTQTYTCNVDHKPSNTKVDKTVERKCCVECPPCPAPPVAGPSVFLFPPKPKDTLMISRTPEVTCVVVDVSHEDPEVQFNWYVDGVEVHNAKTKPREEQFNSTFRVVSVLTVVHQDWLNGKEYKCKVSNKGLPAPIEKTISKTKGQPREPQVYTLPPSREEMTKNQVSLTCLVKGFYPSDIAVEWESNGQPENNYKTTPPMLDSDGSFFLYSKLTVDKSRWQQGNVFSCSVMHEALHNHYTQKSLSLSPGK
light: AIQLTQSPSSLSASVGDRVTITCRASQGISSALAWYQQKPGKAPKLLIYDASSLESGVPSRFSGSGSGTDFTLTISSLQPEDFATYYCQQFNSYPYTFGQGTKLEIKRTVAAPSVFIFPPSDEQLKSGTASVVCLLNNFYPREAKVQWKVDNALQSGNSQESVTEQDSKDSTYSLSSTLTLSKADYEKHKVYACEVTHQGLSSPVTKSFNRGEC
Regarding B3, in [7], the “NFKB signaling (phospho-p65), CD4+ T cells, EC50” value amounted to 12.8 nM; the “NFKB signaling (phospho-p65), CD4+ T cells, Emax” value was found to be 69%; the “NFKB signaling (phospho-p65), CD8+ T cells, EC50” value came to 9 nM; the “NFKB signaling (phospho-p65), CD8+ T cells, Emax” value is 85%.

B4: 11F11 (antibody, human IgG2, kappa, V domains shown)
VH: QVQLVESGGGVVQPGRSLRLSCATSGFTFSNYGMHWVRQAPGKGLEWVAVILYDGSNKYYPDSVKGRFTISRDNSKNTLYLQMNSLRAEDTAVYYCARGGSSWYPDSFDIWGQGTMVTVSS
VL: DIQMTQSPSSLSASVGDRVTITCRASQGISSWLAWYQQKPEKAPKSLIYAASSLQSGVPSRFSGSGSGTDFTLTISSLQPEDFATYYCQQYNSYPLTFGGGTKVEIKR
notes: hybridoma derived anti-CD73 antibody, IgG2 constant region; also called 11F11 (IgG2)
With B4, in assay [8], the “internalization EC50, Calu6 cells, 2 h” value was determined as 0.58 nM and the “internalization Ymax (% of 100 nM 11F11), Calu6 cells” value is 98%. In assay [9], the Kd is 1.6 nM and 0.56 nM; the koff was 0.00042 s⁻¹ and 0.00016 s⁻¹; the on-rate (kon) was 260000 M⁻¹ s⁻¹ and 290000 M⁻¹ s⁻¹.

Usually Kd stands for the concentration at which binding is half-saturated. A lower Kd goes with tighter binding. For orientation: koff means a measure of how fast the partners let go of each other. Read a low koff as a long-lived complex. As a reminder, the kon is a measure of how fast the partners come together. Read a high kon as fast association.
